According to the DeepSol protein solubility set:

Test: soluble on expression in E. coli; label from the status in PepcDB or PDB records

| Sequence | soluble on expression in E. coli |
| --- | --- |
| MKKAADRPTSAVNGRHESPATSTNNTQNSGTPSLNGQDPLRSTSSSPLFGTEPLPEDDHASCPYCQQDFRKPRVLDCLHSMCEDCIIAQLDGHLQAKSAAIEEKKRATAAMLDCELETPKVKERPTPPGVIRCPICSQESHVGNDVRYVHAMLLDFVRLAEMKEVEVEKMVAHHRKPCTACKSEQEAIAFCDQCSSDLCENCTTAHTVMNLFQGHTVTTFADLRQPGAHPELRQVMCSTHNQHMRYLCAACETAACKQCLEVDHLNHKIIDINELVINAIREDVTSTVDRVEKKYNNSVADMNSLPDKSQQLNEQYEIAKYRVDKHYEELRNSIEEAYQKSVNDLEEARIRQESNIDEMYRKSQVNEARVHDAINFTRRLLTKGNGLELVVSRKKVIQQFGNLSHAIPSHGHQVELEFYTPSKKQIDHFVHQLTGTVIGRVIQPTVKDVGNATAASTDRSERGGSQPGGGRSSSAANPSQQDEWGRPVYSQNPQLGAIGGERKKNTQNGTNGTRGDSNAFGGWPPSSHPPESTTPPPVTGPQTMITGAPTQTAAPIVSQQQLSNLPNAAAMAAAAAGMRPDLVALAANHMDLAALTNGSTNGSQTPLPESIFPAMWNARQGLPAVATPTTTGLSTNASAAYMQQKLAAAQLQALASHRLNPQIMSMNNLRTNQTIQEFLAMNAMGNLSLNPQLTSAAAAALAATAAANSAVTTTASDVGQSQNSANAQRVSDLKVHSVFGTSQQGSTIRELHCPSGFCLSDTDDILIADTNNHRVVVCGPPHPWKIGRPGTDDGQLCFPRKVIALRGEAVRYVVLDKGGDGKTRAQIFEARGEFVKRLNMMALVPRGGIEVSAAAATPNGQLLLVDTAGFVYSIDVDAPRVTFWFDASTQLGEASDVAMFDNLIYITDFKHHCVQVYTSEGKFIRKMGEPSQTPYPIGIDVSKAGEVLVADTHGNHLHVVVFSPEGQHIHSFTHNEFRLSRCVGLRIAKSGHIVTLCKHNHTLFVFKPLILPNGLPVPTPVPHATSLISKFQ | not soluble |
| MKKFAAVIAVMALCSAPVMAAEQGGFSGPSATQSQAGGFQGPNGSVTTVESAKSLRDDTWVTLRGNIVERISDDLYVFKDASGTINVDIDHKRWNGVTVTPKDTVEIQGEVDKDWNSVEIDVKQIRKVNP | soluble |
| MKKFCLSYSSGKDCLLAMDRLVQAGNQPVALVTTLSDEINRSWFHGIPISVLEAAAEALDLPLVISHNNETNYTEKVVEALQETKKLGAETVCFGDIDIEQNGAWDRQVALSAGLEPQLPLWQENREALVKEFLAKGYTAIIKTVSKEAGIPIKFLGEPLNETFITYLKEHQLDICGENGEYHTLVIDGPLFKKRLNYYTSGIYESPYAYSLIIDALEHHHHHH | soluble |
| MKKFFQEIKADIKFKSAGPGQKLTDSAGEKTTKGKSPQLALRQPRQGPTDEAQMAAAAALARLEQKQPRARGPTSQDSIRNQVRKELQAEATSSNNPGAPGTNSVPEPKEEISPHLAVPGVFFICPLTGVTLRRDQRDAHIKQAILSHFSTDPVAASIMKIHTFNRDRDRVKLGVDTIAKYLDNIHLHPEEEKYQKIKLQNKVFQERINCLEGSHEFFEAIGFKKVTLPVPDQEGQEEFYVLGEDARAQPQNLARHKQQLLDAEPVRATLDRQLRVFRPSALASHFELPSDFFSLTAEEVKREQRLRTEAVERLSSLRTKAMREKEEQRELRKYTYALVRVRLPDGCLLQGTFYAREKLSALFRFVREALQNDWLPFELRASGGQKLEENEALALNECGLVPSALLTFSWDASVLEDIRAAGAEPAKSVLRPELLAAIEQLS | soluble |
| MKKFIGSVLTTTLILGGCSAMENESNKDTNTETKSVPEEMEASKYVGQGFQPPAEKDAIEFAKKHRKEFEKVGEQFFKDNFGLKVKATNVVGKDDGVEVYVHCEDHGIVFNASLPLYKDAIHQKGSMRSNDNGDDMSMMVGTVLSGFEYRAQKEKYDNLYKFFKENEKKYQYTGFTKEAINKTQNVGYQNEYFYITYLSRNLKEYRKYYEPLIHKNDKEFKEGMQQARKELDYTANTDAVSTLFSTKKNFTKDNTVDDVIELSNKLKEKPNMPQKSQVTIQLGKSSINTKKPFYDDINPIEGLEHHHHHH | not soluble |
| MKKFTLEEFLDLLKKYNVEEIEGVKIEGDLEIEFEGSSIDLSAIAPLYSMLSEFGNFLYHANMALGYLQRLSAALGIPTPFAAQPQLAPAAPAAPAEVPAVEELKIPAELVRAKFEPYKEEYPGKIEEVVLGATKADGGTREYTVTLGGERSLAFYTFDAPQPHLPAIAIDVFDRRPMLAKAVRMHYEDVLDNPAEWARKCVKKFGADLVTLHLISTDPLLDDTPASEAVKVLEDVLQAVKCPIIVGGSGNKEKDPEVLEKAAEVAEGERIMLASATLDMDWERIANAAKKYGHVVLSWTQMDINNQKTLNRYLLKRVEMPRDSIVMDPTTAALGYGLDYAFTNMERIRISGLKGDTDLNFPISSGTTNAWGAREAWMVDSPIEEDTPWGPRELRGPIWEIITGLTLSLAGVDLFMMMHPVAVAVLKEVFNTLGGKVSGGVADPGEWIFMEV | not soluble |
| MKKISRKEYVSMYGPTTGDKVRLGDTDLIAEVEHDYTIYGEELKFGGGKTLREGMSQSNNPSKEELDLIITNALIVDYTGIYKADIGIKDGKIAGIGKGGNKDMQDGVKNNLSVGPATEALAGEGLIVTAGGIDTHIHFISPQQIPTAFASGVTTMIGGGTGPADGTNATTITPGRRNLKWMLRAAEEYSMNLGFLAKGNASNDASLADQIEAGAIGFKIHEDWGTTPSAINHALDVADKYDVQVAIHTDTLNEAGCVEDTMAAIAGRTMHTFHTEGAGGGHAPDIIKVAGEHNILPASTNPTIPFTVNTEAEHMDMLMVCHHLDKSIKEDVQFADSRIRPQTIAAEDTLHDMGAFSITSSDSQAMGRVGEVITRTWQTADKNKKEFGRLKEEKGDNDNFRIKRYLSKYTINPAIAHGISEYVGSVEVGKVADLVLWSPAFFGVKPNMIIKGGFIALSQMGDANASIPTPQPVYYREMFAHHGKAKYDANITFVSQAAYDKGIKEELGLERQVLPVKNCRNVTKKDMQFNNTTAHIEVNPETYHVFVDGKEVTSKPANKVSLAQLFSIF | soluble |
| MKKITINDLMKWKQEGRKFATSTAYDASFAQLFESQEMPVLLVGDSLGMVLQGETDTLPVTVDDIAYHTRCVRKGSPNCLLMADMPFMSYATPEQACENAAKLVRAGANMVKIEGGDWLVDTVKMLTERAVPVCAHLGLTPQSVNIFGGYKVQGREQDKADRMVRDALALQEAGAQIVLLECVPAELANRITQILDVPVIGIGAGNGTDGQILVMHDMFGISANYMPKFSKNFLAETGDIRQAVAKYIEDVASGAFPDLAHTIALEHHHHHH | soluble |
| MKKKIIIAIVASAITMTHFVGNTYADSKTEVSVTAPYNTNQIAKWLEAHAKPLKTTNPTASLNDLKPLKNMVGSASIVGLGEATHGAHEVFTMKHRIVKYLVSEKGFTNLVLEEGWDRALELDRYVLTGKGNPSQHLTPVFKTKEMLDLLDWIRQYNANPKHKSKVRVIGMDIQSVNENVYNNIIEYIKANNSKLLPRVEEKIKGLIPVTKDMNTFESLTKEEKEKYVLDAKTISALLEENKSYLNGKSKEFAWIKQNARIIEQFTTMLATPPDKPADFYLKHDIAMYENAKWTEEHLGKTIVWGHNGHVSKTNMLSFIYPKVAGQHLAEYYGKRYVSIGTSVYEGQYNVKNSDGEFGPYGTLKSDDPNSYNYIFGQVKKDQFFIDLRKANGVTKTWLNEQHPIFAGITTEGPDIPKTVDISLGKAFDILVQIQKVSPSQVHQLEHHHHHH | soluble |
| MKKKIIKKKSAAAPASKIPDDFEMPMARVADEDDVAEDYKVVDMSEIAAPIIEFEMPNLVEKSPEEFKNSEVTGEASREVSVKTPKKVTKRVRKSSKTDKTDQIPLTAEKLNNELVALRATCLTAKNQLMSRIVRQKKQLESKKSQKVDGKSKEERDRKIARLVEEILGLKTFDKDSVAKFAALNTKSLAELKINGKTEVAERLMYKLVCQSIIVEKIQSIREKYTEWNKTAAFFMQRLGQQYANKPEKKSKKSTEKKELNIENLEDLNNEDEDSENEKEEEIEENEEDYDQSDIEMLDSDEEEAGEEAAKNRRNLLLGLIGVQEDKNRPSLAPKKRKLVEEEDEEVETVKNQKKMKQIFEKELKSKEVKNPKKSNKSTKKPTKSAPIVKKVEEKKVEENEVSDDESDQKTLVMKVDLSKGGKIAKAQKFSTTAPKSAKIVAPVSEDENDDDESSSFFLPKSGVVAPRKIIPKKPSENVEKVDKRFQKGTQKKSEAVVEKKKGSSKSAVSGEMHPSWIASQLKKKELASAKPCGKKITFGDDEEE | not soluble |
